# Laboratory results reported in patent US20260193323.
# Columns and labels:
# [1] = system: T1, LEKTI Domain 6 (ct His6 tag)
# T1 sequence: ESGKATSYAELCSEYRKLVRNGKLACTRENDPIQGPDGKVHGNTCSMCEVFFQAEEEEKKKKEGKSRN
# [2] = system: T2, recombinantly produced LEKTI Domain 6
# T2 sequence: T1 sequence
substance,measurement,setting,value
trypsin,"trypsin activity (L-BAPNA substrate, 405 nm)",[1],recombinantly produced LEKTI Domain 6 (ct His6 tag) inhibits trypsin in vitro compared to LEKTI domains 10-15
same,"Trypsin activity (rate of change in the absorbance at 405 nm, L-BAPNA cleavage, per minute)",[2],LEKTI Domain 6 inhibited trypsin activity in vitro
